In experiment [1] the target is T1, human VISTA (ECD)-his (Sino Biological, Cat #:13482-H08H) (human, UniProt Q9H7M9 33-194).
T1 construct: extracellular domain; Bought protein; also called hVISTA(ECD)-his; recombinant human VISTA(ECD)-his; not shown: his tag
T1 sequence (looked up): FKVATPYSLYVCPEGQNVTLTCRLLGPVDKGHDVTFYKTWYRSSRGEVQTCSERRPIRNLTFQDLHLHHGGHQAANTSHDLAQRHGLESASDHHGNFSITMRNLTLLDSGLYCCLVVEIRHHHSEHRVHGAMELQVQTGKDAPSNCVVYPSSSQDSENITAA
The experiment is described as follows: direct ELISA, coated hVISTA(ECD)-his. Here is the method: ELISA plates were coated with 500 ng/ml human VISTA (ECD)-his (Sino Biological, CN, Cat #:13482-H08H) at 4° C. overnight. The wells were blocked with 200 μl of blocking buffer (PBS containing 1% BSA, 1% goat serum, and 0.05% Tween 20) for 2 hours at room temperature, and then 100 μl of serially diluted anti-VISTA antibodies (starting from 40000 ng/ml) were added to each well and incubated for 1 hour at RT. Plates were washed for 3 times with PBST (PBS+0.05% Tween 20), added with Goat-anti-mouse IgG-HRP (Simga, US, Cat #:A9309-1 ml) diluted 5000×, and incubated for 1 hour at RT. Plates were developed with freshly prepared Ultra-TMB (BD, US, Cat #:555214) for 5 minutes at RT. Absorbance was read on a SpectraMax® i3× (Molecular Devies, US) at 450 nm.

The target in experiment [2] is T2, monkey VISTA (ECD)-his (Sino Biological, Cat #: 90801-K08H) (cynomolgus monkey).
T2 construct: extracellular domain; Bought protein; also called cynoVISTA(ECD)-his; cynomolgus VISTA (ECD)-his
The experiment is described as follows: direct ELISA, coated cynoVISTA(ECD)-his. The procedure: (§1) Species-cross-reactivity of the 28 VISTA mAbs to monkey or mouse VISTA was further assessed by direct ELISA. Briefly, 500 ng/ml monkey VISTA (ECD)-his (Sino Biological, CN, Cat #: 90801-K08H) or mouse VISTA-his (Sino Biological, CN, Cat #:511550-M08H) was coated on 96-well ELISA plates followed by incubation with 100 μl of serially diluted anti-VISTA antibodies (starting from 40000 ng/ml). Goat anti-mouse IgG conjugated with HRP (Sigma, US, Cat #:A9309-1 ml) was used then. Anti-VISTA antibody JNJ-VSTB174 (referred to as JNJ) (prepared using the amino acid sequences disclosed in WO 2015/097536 A2 with human IgG1/kappa constant regions) was used as the reference.

Experiment [3] addresses T3, human VISTA expressed on HEK293A cells (human, UniProt Q9H7M9 33-311).
T3 construct: also called HEK293A/humanVISTA; HEK293A/human VISTA
T3 sequence: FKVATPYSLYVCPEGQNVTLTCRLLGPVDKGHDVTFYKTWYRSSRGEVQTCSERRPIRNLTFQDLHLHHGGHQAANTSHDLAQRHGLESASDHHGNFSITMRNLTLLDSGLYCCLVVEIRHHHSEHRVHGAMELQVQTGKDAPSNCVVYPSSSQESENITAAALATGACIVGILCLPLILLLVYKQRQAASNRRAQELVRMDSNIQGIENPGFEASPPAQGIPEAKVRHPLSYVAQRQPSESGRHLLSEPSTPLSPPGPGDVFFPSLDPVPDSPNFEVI
The experiment is described as follows: FACS blocking assay on HEK293A/human VISTA cells; competitor 200 µg/ml VSIG3-hFc. The procedure:
A cell-based blocking assay by FACS was performed using the HEK293A cells stably overexpressing human VISTA as generated in Example 1. Briefly, 10^5 HEK293A/human VISTA cells were seeded into each well of the 96-well plates and serially diluted anti-VISTA antibodies were added to the plates. After incubated at 4° C. for 1 hour, plates were washed 3 times with PBST. Then 200 μg/ml VSIG3-hFc fusion proteins were added into the plate. After incubation at 4° C. for 1 hour, the plates were washed with PBS for 3 times and then an PE coupled Goat Anti-human IgG (Thermofisher, USA, Cat # PAI-86078) diluted 500× was added to the plates. After incubation at 4° C. for 1 hour, the plates were washed with PBS for 3 times and then cell fluorescence was monitored using a FACS machine (BD).

Experiment [4] addresses T3, human VISTA expressed on HEK293A cells. The experiment is described as follows: FACS on HEK-293A/hVISTA cells. The procedure:
(§2) Example 5 Mouse Anti-VISTA Monoclonal Antibodies Bound to Human and Monkey VISTA Expressed on HEK293A Cells To further determine whether anti-VISTA antibodies bound to human, monkey or mouse VISTA expressed on HEK293A cells, a cell-based binding assay by FACS was performed using the HEK293A cells stably overexpressing human, monkey or mouse VISTA as generated in Example 1, respectively. Briefly, 10^5 HEK293A cells were seeded into each well of the 96-well plates and serially diluted anti-VISTA antibodies were added to the plates. After incubated at 4° C. for 1 hour, plates were washed 3 times with PBST. Then, an APC coupled Goat Anti-Mouse IgG (BioLegend, US, Cat #:405308) diluted 500× was added to the plates. After incubation at 4° C. for 1 hour, the plates were washed with PBS for 3 times and then cell fluorescence was monitored using a FACS machine (BD).

For experiment [5], the target named is T4, mouse VISTA expressed on HEK293A cells (mouse, UniProt Q9D659 33-308).
T4 construct: also called HEK293A/mouseVISTA; HEK293A/mouse VISTA
T4 sequence: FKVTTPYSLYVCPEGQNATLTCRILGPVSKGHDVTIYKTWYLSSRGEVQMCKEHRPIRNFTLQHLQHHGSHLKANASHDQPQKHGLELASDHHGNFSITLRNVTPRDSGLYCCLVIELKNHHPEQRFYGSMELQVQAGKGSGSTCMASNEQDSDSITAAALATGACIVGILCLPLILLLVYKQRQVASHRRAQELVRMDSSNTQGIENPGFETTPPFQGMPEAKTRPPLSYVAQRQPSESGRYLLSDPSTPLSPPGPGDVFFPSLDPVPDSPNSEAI
The experiment is described as follows: FACS on HEK293A/mouse VISTA cells. The procedure:
as §2

Experiment [6] addresses T5, monkey VISTA expressed on HEK293A cells (monkey (cynomolgus)).
T5 construct: also called HEK293A/cynoVISTA; HEK293A/monkey VISTA
T5 chain: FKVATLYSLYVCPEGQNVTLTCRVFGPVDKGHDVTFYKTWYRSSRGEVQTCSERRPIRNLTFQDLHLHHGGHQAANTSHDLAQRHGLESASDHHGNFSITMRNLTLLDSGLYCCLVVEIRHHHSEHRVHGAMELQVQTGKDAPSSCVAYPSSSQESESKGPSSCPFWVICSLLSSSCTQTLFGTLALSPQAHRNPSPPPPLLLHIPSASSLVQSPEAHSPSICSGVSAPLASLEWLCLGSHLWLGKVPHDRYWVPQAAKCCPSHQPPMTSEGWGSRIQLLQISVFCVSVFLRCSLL
The experiment is described as follows: FACS on HEK-293A/cynoVISTA cells. The procedure: as §2

For experiment [7], the target named is T6, mouse VISTA-his (Sino Biological, Cat #:511550-M08H) (mouse, UniProt Q9D659 33-191).
T6 construct: extracellular domain; Bought protein; also called muVISTA-his; mouse VISTA (ECD)-his; not shown: his tag
T6 sequence (looked up): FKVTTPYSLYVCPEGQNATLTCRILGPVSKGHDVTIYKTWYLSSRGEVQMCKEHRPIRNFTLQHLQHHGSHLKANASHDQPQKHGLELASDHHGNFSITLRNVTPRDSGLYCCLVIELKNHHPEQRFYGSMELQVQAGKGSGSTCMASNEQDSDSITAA
The experiment is described as follows: direct ELISA, coated mouse VISTA-his. Here is the method: as §1

B1: mouse 161E5 anti-VISTA antibody (antibody, V domains shown)
VH: QVQLKQSGAELVRPGASVKLSCKASGYSFTDYYINWVKQRPGQGLEWIARIFPGSGNAYYNEKFKDKATLTVEKSSSAAYMQLSSLTSEDSAVYFCARDDSFYGYWYFDVWGTGTTVTVSS
VL: NIMMTQSPSSLAVSAGEKVTMSCKSSQSVLYSSNQKNYLAWYQQKPGQSPKLLIYWASTRESGVPDRFTGSGSGTDFTLTISSVQAEDLAVYYCHQYLSSYTFGGGTKLEIK
notes: also called mouse anti-VISTA antibodies from clone 161E5; murine antibody 161E5
Consider B1, for which the EC50 in experiment [1] was 0.32 nM; in experiment [2] it was 0.45 nM; in experiment [3], 19 nM; in experiment [4], 0.6 nM; in experiment [6], 1.2 nM. Besides, the binding result in experiment [5] is given as “no binding”; in experiment [7] it was “no binding (tested: starting from 40000 ng/ml)”.

(Values after US10577424 (BEIJING MABWORKS BIOTECH, dated 2020).)
